B1: TRIM55 (parent)
chain: FQASNPYLPTRGGTTMASGGRFRC

This note sets out measurements from the supplement of paper PMC10567573.
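Further: lentivirally expressed fusions sorted by FACS into six bins by GFP to DsRed ratio, PSI derived from sequencing read proportions per bin multiplied by bin number.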

Variants of B1 are the subject of the data set. As to the kind of experiment: protein stability index of a GFP-peptide fusion (GPS, HEK-293T) (PSI 1-6); higher = more stable. The conditions noted are these: c terminus: a fixed tail appended.
For the variant FQASNPYLPTRGGTTMASGGRFRE [C24E], the protein stability index was 2.51. As to FQASNPYLPTRGGTTMASGGRFRH [C24H], the protein stability index amounted to 2.08. Take FQASNPYLPTRGGTTMASGGRFRL [C24L]: the protein stability index came out at 1.57. In the case of FQASNPYLPTRGGTTMASDGRFRC [G19D] it was 2.06; in that of FQASNPYLPTRGGTTMASTGRFRC [G19T], 2.28; in that of FQASNPYLPTRGGTTMASKGRFRC [G19K], 2.39. For the variant FQASNPYLPTRGGTTMASVGRFRC [G19V], the protein stability index is 2.07. In the case of FQASNPYLPTRGGTTMASHGRFRC [G19H] it was 2.48; in that of FQASNPYLPTRGGTTMASMGRFRC [G19M], 1.49. On to FQASNPYLPTRGGTTMASCGRFRC [G19C], for which the protein stability index was determined as 2.9.

Turning to FQASNPYLPTRGGTTMASAGRFRC [G19A], the protein stability index is 1.7. In the case of FQASNPYLPTRGGTTMASNGRFRC [G19N] it was 1.77; in that of FQASNPYLPTRGGTTMASSGRFRC [G19S], 1.83; in that of FQASNPYLPTRGGTTMASEGRFRC [G19E], 1.71. Regarding FQASNPYLPTRGGTTMASLGRFRC [G19L], the protein stability index was determined as 2.

FQASNPYLPTRGGTTMKSGGRFRC [A17K]: the protein stability index was 1.79. The figure for FQASNPYLPTRGGTTMWSGGRFRC [A17W] is 1.76; for FQASNPYLPTRGGTTMFSGGRFRC [A17F] it is 1.88. FQASNPYLPTRGGTTMNSGGRFRC [A17N]: the protein stability index is 2.27.

For the variant FQASNPYLPTRGGTTMLSGGRFRC [A17L], the protein stability index is 2.54. Take FQASNPYLPTRGGTTMSSGGRFRC [A17S]: the protein stability index came to 2.14. In the case of FQASNPYLPTRGGTTMASGGKFRC [R21K] it was 3.08; in that of FQASNPYLPTRGGTTMASGGTFRC [R21T], 1.04. In the case of FQASNPYLPTRGGTTMASGGPFRC [R21P] it was 2.12; in that of FQASNPYLPTRGGTTMASGGSFRC [R21S], 1.75; in that of FQASNPYLPTRGGTTMASGGHFRC [R21H], 1.68.

Consider FQASNPYLPTRGGTTMASGGVFRC [R21V], for which the protein stability index stood at 1.42. Take FQASNPYLPTRGGTTMASGGDFRC [R21D]: the protein stability index was 1.81. The figure for FQASNPYLPTRGGTTMASGGQFRC [R21Q] is 1.85; for FQASNPYLPTRGGTTMASGGNFRC [R21N] it is 2.49; for FQASNPYLPTRGGTTMACGGRFRC [S18C] it is 1.35. In the case of FQASNPYLPTRGGTTMAYGGRFRC [S18Y] it was 2.22; in that of FQASNPYLPTRGGTTMAAGGRFRC [S18A], 1.97.

As for FQASNPYLPTRGGTTMAMGGRFRC [S18M], the protein stability index amounted to 2.51.

For the variant FQASNPYLPTRGGTTMAEGGRFRC [S18E], the protein stability index amounted to 2.22. In the case of FQASNPYLPTRGGTTMANGGRFRC [S18N] it was 2.19; in that of FQASNPYLPTRGGTTMAPGGRFRC [S18P], 1.79. With FQASNPYLPTRGGTTMAVGGRFRC [S18V], the protein stability index was 1.21. FQASNPYRPTRGGTTMASGGRFRC [L8R]: the protein stability index was found to be 2.54. The figure for FQASNPYEPTRGGTTMASGGRFRC [L8E] is 3.39. In the case of FQASNPYPPTRGGTTMASGGRFRC [L8P], the protein stability index came out at 1.92. In the case of FQASNPYDPTRGGTTMASGGRFRC [L8D] it was 2.55; in that of FQASNPYTPTRGGTTMASGGRFRC [L8T], 2.79. With FQASNPYKPTRGGTTMASGGRFRC [L8K], the protein stability index is 1.14. With FQASNPYIPTRGGTTMASGGRFRC [L8I], the protein stability index came to 2.79. FQASNPYVPTRGGTTMASGGRFRC [L8V]: the protein stability index worked out at 2.03.

On to FQASNPYGPTRGGTTMASGGRFRC [L8G], for which the protein stability index stood at 2.02. In the case of FQASNPYCPTRGGTTMASGGRFRC [L8C] it was 3.09; in that of FQASNPYLPTIGGTTMASGGRFRC [R11I], 2.46; in that of FQASNPYLPTLGGTTMASGGRFRC [R11L], 2.15. The figure for FQASNPYLPTFGGTTMASGGRFRC [R11F] is 2.01.

For FQASNPYLPTMGGTTMASGGRFRC [R11M], the protein stability index came to 2.11. Take FQASNPYLPTPGGTTMASGGRFRC [R11P]: the protein stability index is 2.13.

On to FQASNPYLPTSGGTTMASGGRFRC [R11S], for which the protein stability index is 2.02. In the case of FQASNPYLPTNGGTTMASGGRFRC [R11N] it was 1.86; in that of FQASNPYLPTHGGTTMASGGRFRC [R11H], 1.57; in that of FQASNYYLPTRGGTTMASGGRFRC [P6Y], 2.42. In the case of FQASNKYLPTRGGTTMASGGRFRC [P6K], the protein stability index was 3.13.

FQASNDYLPTRGGTTMASGGRFRC [P6D]: the protein stability index was found to be 2.07. Turning to FQASNQYLPTRGGTTMASGGRFRC [P6Q], the protein stability index amounted to 2.48. Take FQASNHYLPTRGGTTMASGGRFRC [P6H]: the protein stability index was 2.37. The figure for FQASNFYLPTRGGTTMASGGRFRC [P6F] is 2.12; for FQASNTYLPTRGGTTMASGGRFRC [P6T] it is 1.93. The figure for FQASNSYLPTRGGTTMASGGRFRC [P6S] is 1.65; for FQASNCYLPTRGGTTMASGGRFRC [P6C] it is 3.1. Regarding FQASNWYLPTRGGTTMASGGRFRC [P6W], the protein stability index is 1.93.

Consider FQASNPYLPTRGGTTAASGGRFRC [M16A], for which the protein stability index came out at 1.57.

Regarding FQASNPYLPTRGGTTKASGGRFRC [M16K], the protein stability index came out at 3.34.

Regarding FQASNPYLPTRGGTTCASGGRFRC [M16C], the protein stability index came to 1.77.

Take FQASNPYLPTRGGTTHASGGRFRC [M16H]: the protein stability index is 1.69. As for FQASNPYLPTRGGTTFASGGRFRC [M16F], the protein stability index came out at 1.76. The figure for FQASNPYLPTRGGTTRASGGRFRC [M16R] is 1.86. The figure for FQASNPYLPTRGGTTIASGGRFRC [M16I] is 2.83. In the case of FQASNPYLPTRGGTTLASGGRFRC [M16L] it was 1.79.

In the case of FQASNPYLPTRGGTTYASGGRFRC [M16Y], the protein stability index is 1.98. In the case of FQASNPYLPTRGFTTMASGGRFRC [G13F] it was 1.22; in that of FQASNPYLPTRGKTTMASGGRFRC [G13K], 2.74; in that of FQASNPYLPTRGCTTMASGGRFRC [G13C], 1.65. For FQASNPYLPTRGMTTMASGGRFRC [G13M], the protein stability index was 2.65.

Consider FQASNPYLPTRGVTTMASGGRFRC [G13V], for which the protein stability index worked out at 1.9. In the case of FQASNPYLPTRGNTTMASGGRFRC [G13N] it was 1.22; in that of FQASNPYLPTRGGTDMASGGRFRC [T15D], 1.75; in that of FQASNPYLPTRGGTSMASGGRFRC [T15S], 1.69. In the case of FQASNPYLPTRGGTMMASGGRFRC [T15M] it was 1.72; in that of FQASNPYLPTRGGTGMASGGRFRC [T15G], 2.85; in that of FQASNPYLPTRGGTRMASGGRFRC [T15R], 2.93.

On to FAASNPYLPTRGGTTMASGGRFRC [Q2A], for which the protein stability index is 2.17. With FFASNPYLPTRGGTTMASGGRFRC [Q2F], the protein stability index came out at 2.03.

In the case of FPASNPYLPTRGGTTMASGGRFRC [Q2P], the protein stability index stood at 1.61. Take FHASNPYLPTRGGTTMASGGRFRC [Q2H]: the protein stability index is 2.99. The figure for FVASNPYLPTRGGTTMASGGRFRC [Q2V] is 1.74; for FRASNPYLPTRGGTTMASGGRFRC [Q2R] it is 2.68.

FKASNPYLPTRGGTTMASGGRFRC [Q2K]: the protein stability index came to 2.85.

Turning to FGASNPYLPTRGGTTMASGGRFRC [Q2G], the protein stability index turned out to be 1.9.
